These are literature values, as cited in PMC8811192.

Read-outs that look alike come from different tables or passages of the source.

One series has as its target OrxB (Homo sapiens) (UniProt O43612).
Series [1] addresses OrxA (Homo sapiens) (UniProt O43612).
Series [2] has the same target. The source holds these as a separate data set.

The Kd is the equilibrium constant for the complex coming apart. Take OrxR2 (from UniProt O43614): the Kd in the series with OrxB (Homo sapiens) and with OrxA (Homo sapiens) [1] was 0.04 µM in each case.

Consider OrxR1 (from UniProt O43613), for which the Kd with OrxA (Homo sapiens) [2] was 0.025 µM.
